In patent US20120058120A1, “Targets for Growth Factor Signalling and Methods of Therapy” (priority 2009, published 2012):

How the values were obtained:
TG2 [1] = molecular target: T1, TG2 (Homo sapiens, UniProt P21980); test: TG2-catalysed crosslinking of IGF-I to recombinant extracellular domain of IGF1R, IGF-I Western blot; type: biochemical; settings: TG2 0.70 μM, IGF-I 25 μg/mL, IGF1R 25 μg/mL, 1 hour, 1 mM CaCl2, pH 7.5
T1 sequence (P21980 1-687): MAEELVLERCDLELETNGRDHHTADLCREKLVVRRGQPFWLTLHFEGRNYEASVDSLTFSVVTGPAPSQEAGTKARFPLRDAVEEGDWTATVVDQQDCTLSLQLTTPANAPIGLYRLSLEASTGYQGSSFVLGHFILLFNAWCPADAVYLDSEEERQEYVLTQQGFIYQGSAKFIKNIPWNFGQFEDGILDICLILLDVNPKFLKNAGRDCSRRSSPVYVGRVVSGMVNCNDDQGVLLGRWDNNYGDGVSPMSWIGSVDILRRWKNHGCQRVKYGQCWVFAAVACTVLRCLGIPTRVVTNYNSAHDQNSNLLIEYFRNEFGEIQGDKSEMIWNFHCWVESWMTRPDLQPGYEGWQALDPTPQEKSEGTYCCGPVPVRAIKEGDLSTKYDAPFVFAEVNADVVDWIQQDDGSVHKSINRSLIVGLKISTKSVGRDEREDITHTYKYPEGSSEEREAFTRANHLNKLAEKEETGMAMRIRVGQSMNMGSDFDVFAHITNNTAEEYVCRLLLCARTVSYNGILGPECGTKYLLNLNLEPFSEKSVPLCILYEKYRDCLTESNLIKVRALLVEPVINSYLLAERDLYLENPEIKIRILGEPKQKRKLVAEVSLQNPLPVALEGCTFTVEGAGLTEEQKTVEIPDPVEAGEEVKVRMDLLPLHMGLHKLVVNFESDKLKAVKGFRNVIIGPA
Method: TG2 (0.70 μM) was reacted with IGF-I (25 μg/mL) and/or recombinant extracellular domain of IGF1R (25 μg/mL; commercially available from R&D Systems) for 1 hour in the presence of 1 mM CaCl2, pH 7.5. At this point, the reaction was stopped by the addition of SDS-PAGE loading buffer. Samples were run through a 4%-12% SDS-PAGE gel, transferred to a PVDF membrane and probed for IGF-I using a goat anti-human IGF-I primary (1:5000 dilution) and HRP-conjugated rabbit anti-goat secondary (1:10,000), and visualised using chemiluminescence.
For it to be able to do this, both IGF-I and the IGF1R would have to be transglutaminase substrates. Because TG2 catalyses the formation of an isopeptide bond which is essentially as stable as a peptide backbone bond, the complex formed will not be broken apart under reducing SDS-PAGE conditions (whereas disulfide and non-covalent interactions will be broken).
So, in this assay we reacted IGF-I and the soluble recombinant extracellular portion of the receptor with TG2, and probed for where IGF-I ended up using a standard Western blot approach. The “smoking gun” for a reaction would be staining for IGF-I appearing at a molecular weight corresponding to […]. […]

FXIII = molecular target: T2, FXIII (Homo sapiens, UniProt P00488); test: IGF-I incubated with FXIII and PEG functionalized with Q- or K-donor TG substrate peptide, IGF-I Western blot; type: biochemical; settings: after 1 h; Q-donor vs K-donor PEG
T2 sequence (P00488 1-732): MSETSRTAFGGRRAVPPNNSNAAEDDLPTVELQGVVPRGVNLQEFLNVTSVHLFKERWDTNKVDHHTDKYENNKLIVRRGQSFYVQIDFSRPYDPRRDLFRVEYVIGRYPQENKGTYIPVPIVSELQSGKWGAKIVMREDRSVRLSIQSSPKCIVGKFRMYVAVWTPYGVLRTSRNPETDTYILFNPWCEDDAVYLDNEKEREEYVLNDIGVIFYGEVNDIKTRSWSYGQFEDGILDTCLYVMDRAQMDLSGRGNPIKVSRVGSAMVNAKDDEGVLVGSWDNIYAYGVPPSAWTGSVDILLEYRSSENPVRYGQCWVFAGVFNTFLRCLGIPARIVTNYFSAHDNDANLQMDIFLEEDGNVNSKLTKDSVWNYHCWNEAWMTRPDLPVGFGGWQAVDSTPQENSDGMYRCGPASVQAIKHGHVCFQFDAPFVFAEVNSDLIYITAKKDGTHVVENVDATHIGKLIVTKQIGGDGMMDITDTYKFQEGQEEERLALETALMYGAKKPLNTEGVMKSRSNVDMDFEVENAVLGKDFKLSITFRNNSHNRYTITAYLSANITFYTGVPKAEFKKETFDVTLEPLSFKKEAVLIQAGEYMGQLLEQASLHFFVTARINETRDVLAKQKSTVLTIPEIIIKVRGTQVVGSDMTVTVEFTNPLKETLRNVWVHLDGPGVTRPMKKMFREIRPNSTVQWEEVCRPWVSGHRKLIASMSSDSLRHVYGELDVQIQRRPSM
Method: FIG. 1 (a) IGF-I Western blot after reaction for 60 minutes with FXIII and PEG derivatized with a glutamine (left lane) or lysine FXIII substrate (right lane). […] (b) 3D structure of IGF-I, with the putative FXIII site at the D domain shown relative to residues identified as important for receptor binding.
In the present experiments, IGF-I was incubated with FXIII and PEG functionalized with either a glutamine (Q)- or lysine (K)-donor TG substrate peptide.

TG2 [2] = molecular target: T1, TG2; test: Reaction of IGF-I with TG2, with or without the Gln-donor substrate glucagon; type: biochemical
Source text: FIG. 4 Reaction of IGF-I with glucagon catalysed by TG2. Lane 1: IGF-I control; 2: IGF-I+TG2; 3: TG2 control; 4: Gn control; 5: IGF-I+Gn; 6: TG2+Gn; 7: TG2+Gn+IGF-I. (Gn=glucagon)
In order to confirm this finding, we repeated this experiment using TG2 rather than FXIII, and the known TG2 Gln-donor substrate glucagon (Gn) as a probe (FIG. 4). […] The large band >75 kDa in lane 2 is apparently due to the formation of covalent complexes between IGF-I and TG2 itself; polymerization of IGF-I is also evident. Reaction of IGF-I with Gn (lane 7) also produced polymeric species. A band of MW consistent with (IGF-I)1Gn1 is indicated by an arrow.

[3] = molecular target: insulin-like growth factor I (IGF-I), P05019
Sequence of insulin-like growth factor I (IGF-I), P05019 (P05019 whole entry, looked up): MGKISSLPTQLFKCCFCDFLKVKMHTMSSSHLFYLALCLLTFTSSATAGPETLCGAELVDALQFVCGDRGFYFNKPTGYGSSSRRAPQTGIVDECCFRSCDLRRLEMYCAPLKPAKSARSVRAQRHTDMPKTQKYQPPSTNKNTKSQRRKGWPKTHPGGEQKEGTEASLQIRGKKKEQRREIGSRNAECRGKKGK

## IGF-I: insulin-like growth factor I, tested as transglutaminase substrate
TG2 [1]
  crosslinking of IGF-I to IGF1R by TG2: TG2 recognises sites on both the IGF1R and IGF-I, and is able to bind the two together
FXIII
  incorporation of IGF-I into TG substrate-functionalized PEG: quantitatively incorporated into the Q-donor, but not the K-donor PEG
TG2 [2]; lane 2, IGF-I+TG2
  products of reaction of IGF-I alone with TG2: produced a series of bands corresponding to IGF-I oligomers
TG2 [2]; lane 7, TG2+Gn+IGF-I
  products of reaction of IGF-I with glucagon catalysed by TG2: produced a wide range of molecular weight species

B1: factor XIII (FXIII) (protein)
chain: SETSRTAFGGRRAVPPNNSNAAEDDLPTVELQGVVPRGVNLQEFLNVTSVHLFKERWDTNKVDHHTDKYENNKLIVRRGQSFYVQIDFSRPYDPRRDLFRVEYVIGRYPQENKGTYIPVPIVSELQSGKWGAKIVMREDRSVRLSIQSSPKCIVGKFRMYVAVWTPYGVLRTSRNPETDTYILFNPWCEDDAVYLDNEKEREEYVLNDIGVIFYGEVNDIKTRSWSYGQFEDGILDTCLYVMDRAQMDLSGRGNPIKVSRVGSAMVNAKDDEGVLVGSWDNIYAYGVPPSAWTGSVDILLEYRSSENPVRYGQCWVFAGVFNTFLRCLGIPARIVTNYFSAHDNDANLQMDIFLEEDGNVNSKLTKDSVWNYHCWNEAWMTRPDLPVGFGGWQAVDSTPQENSDGMYRCGPASVQAIKHGHVCFQFDAPFVFAEVNSDLIYITAKKDGTHVVENVDATHIGKLIVTKQIGGDGMMDITDTYKFQEGQEEERLALETALMYGAKKPLNTEGVMKSRSNVDMDFEVENAVLGKDFKLSITFRNNSHNRYTITAYLSANITFYTGVPKAEFKKETFDVTLEPLSFKKEAVLIQAGEYMGQLLEQASLHFFVTARINETRDVLAKQKSTVLTIPEIIIKVRGTQVVGSDMTVTVEFTNPLKETLRNVWVHLDGPGVTRPMKKMFREIRPNSTVQWEEVCRPWVSGHRKLIASMSSDSLRHVYGELDVQIQRRPSM
[3]
  Western blot for IGF-I after 1 h reaction with FXIII and PEG carrying a glutamine- or lysine-donor TG substrate peptide: after 1 h IGF-I was quantitatively incorporated into the Q-donor, but not the K-donor PEG
